Test [1] addresses human glucagon-like peptide 1 receptor (GLP-1 R) (human, UniProt P43220 24-463). In words: cell-based or functional assay.
In test [2] the target is T1, human GLP-2 receptor (hGLP2-R) (human, UniProt O95838 1-553).
T1 sequence (looked up): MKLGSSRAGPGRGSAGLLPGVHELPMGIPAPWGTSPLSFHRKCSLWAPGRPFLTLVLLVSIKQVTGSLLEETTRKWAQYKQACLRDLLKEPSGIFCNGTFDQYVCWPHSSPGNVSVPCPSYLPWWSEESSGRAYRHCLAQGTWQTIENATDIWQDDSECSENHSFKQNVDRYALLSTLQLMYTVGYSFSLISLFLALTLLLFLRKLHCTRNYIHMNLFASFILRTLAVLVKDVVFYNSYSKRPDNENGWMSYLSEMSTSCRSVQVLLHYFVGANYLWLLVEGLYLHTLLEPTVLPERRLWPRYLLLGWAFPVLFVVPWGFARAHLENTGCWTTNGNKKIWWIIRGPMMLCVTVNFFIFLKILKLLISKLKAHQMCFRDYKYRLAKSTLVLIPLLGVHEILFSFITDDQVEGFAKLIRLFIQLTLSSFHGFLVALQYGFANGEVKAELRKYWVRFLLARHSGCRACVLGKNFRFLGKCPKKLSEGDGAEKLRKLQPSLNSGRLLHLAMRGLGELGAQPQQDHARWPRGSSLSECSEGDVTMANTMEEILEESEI
Description: cell-based or functional assay.

B1: Compound 16 (peptide)
peptide: HXEGTFTSELATILDXEAARLFIAWLIEHKITD
HELM: PEPTIDE1{H.[Aib].E.G.T.F.T.S.E.L.A.T.I.L.D.K.E.A.A.R.L.F.I.A.W.L.I.E.H.K.I.T.D}|PEPTIDE2{[O=C(O)CCCCCCCCCCCCCCCCC(=O)[*:2]].[gGlu]}$PEPTIDE1,PEPTIDE2,16:R3-2:R2$$$V2.0
SMILES: CC[C@H](C)[C@H](NC(=O)[C@H](Cc1ccccc1)NC(=O)[C@H](CC(C)C)NC(=O)[C@H](CCCNC(=N)N)NC(=O)[C@H](C)NC(=O)[C@H](C)NC(=O)[C@H](CCC(=O)O)NC(=O)[C@H](CCCCNC(=O)CC[C@H](NC(=O)CCCCCCCCCCCCCCCCC(=O)O)C(=O)O)NC(=O)[C@H](CC(=O)O)NC(=O)[C@H](CC(C)C)NC(=O)[C@@H](NC(=O)[C@@H](NC(=O)[C@H](C)NC(=O)[C@H](CC(C)C)NC(=O)[C@H](CCC(=O)O)NC(=O)[C@H](CO)NC(=O)[C@@H](NC(=O)[C@H](Cc1ccccc1)NC(=O)[C@@H](NC(=O)CNC(=O)[C@H](CCC(=O)O)NC(=O)C(C)(C)NC(=O)[C@@H](N)Cc1c[nH]cn1)[C@@H](C)O)[C@@H](C)O)[C@@H](C)O)[C@@H](C)CC)C(=O)N[C@@H](C)C(=O)N[C@@H](Cc1c[nH]c2ccccc12)C(=O)N[C@@H](CC(C)C)C(=O)N[C@H](C(=O)N[C@@H](CCC(=O)O)C(=O)N[C@@H](Cc1c[nH]cn1)C(=O)N[C@@H](CCCCN)C(=O)N[C@H](C(=O)N[C@H](C(=O)N[C@@H](CC(=O)O)C(=O)O)[C@@H](C)O)[C@@H](C)CC)[C@@H](C)CC
In the case of B1, in test [1], the “EC50 GLP-1 (nM); cAMP response” value was determined as 0.073 nM. Besides, the “EC50 GLP-2 (nM); cAMP response” value in test [2] worked out at 0.68 nM.

B2: Compound 17 (peptide)
peptide: HXEGTFSSELATILDXQAARDFIAWLIQHKITD
HELM: PEPTIDE1{H.[Aib].E.G.T.F.S.S.E.L.A.T.I.L.D.K.Q.A.A.R.D.F.I.A.W.L.I.Q.H.K.I.T.D}|PEPTIDE2{[O=C(O)CCCCCCCCCCCCCCCCC(=O)[*:2]].[gGlu]}$PEPTIDE1,PEPTIDE2,16:R3-2:R2$$$V2.0
SMILES: CC[C@H](C)[C@H](NC(=O)[C@H](Cc1ccccc1)NC(=O)[C@H](CC(=O)O)NC(=O)[C@H](CCCNC(=N)N)NC(=O)[C@H](C)NC(=O)[C@H](C)NC(=O)[C@H](CCC(N)=O)NC(=O)[C@H](CCCCNC(=O)CC[C@H](NC(=O)CCCCCCCCCCCCCCCCC(=O)O)C(=O)O)NC(=O)[C@H](CC(=O)O)NC(=O)[C@H](CC(C)C)NC(=O)[C@@H](NC(=O)[C@@H](NC(=O)[C@H](C)NC(=O)[C@H](CC(C)C)NC(=O)[C@H](CCC(=O)O)NC(=O)[C@H](CO)NC(=O)[C@H](CO)NC(=O)[C@H](Cc1ccccc1)NC(=O)[C@@H](NC(=O)CNC(=O)[C@H](CCC(=O)O)NC(=O)C(C)(C)NC(=O)[C@@H](N)Cc1c[nH]cn1)[C@@H](C)O)[C@@H](C)O)[C@@H](C)CC)C(=O)N[C@@H](C)C(=O)N[C@@H](Cc1c[nH]c2ccccc12)C(=O)N[C@@H](CC(C)C)C(=O)N[C@H](C(=O)N[C@@H](CCC(N)=O)C(=O)N[C@@H](Cc1c[nH]cn1)C(=O)N[C@@H](CCCCN)C(=O)N[C@H](C(=O)N[C@H](C(=O)N[C@@H](CC(=O)O)C(=O)O)[C@@H](C)O)[C@@H](C)CC)[C@@H](C)CC
As to B2, in test [1], the “EC50 GLP-1 (nM); cAMP response” value came to 0.9 nM. For the same molecule, in test [2], the “EC50 GLP-2 (nM); cAMP response” value was determined as 0.33 nM.

B3: Compound 19 (peptide)
peptide: HXEGTFTSELATILDXQAARDFIAWLIQHKITD
HELM: PEPTIDE1{H.[Aib].E.G.T.F.T.S.E.L.A.T.I.L.D.K.Q.A.A.R.D.F.I.A.W.L.I.Q.H.K.I.T.D}|PEPTIDE2{[O=C(O)CCCCCCCCCCCCCCCCC(=O)[*:2]].[gGlu]}$PEPTIDE1,PEPTIDE2,16:R3-2:R2$$$V2.0
SMILES: CC[C@H](C)[C@H](NC(=O)[C@H](Cc1ccccc1)NC(=O)[C@H](CC(=O)O)NC(=O)[C@H](CCCNC(=N)N)NC(=O)[C@H](C)NC(=O)[C@H](C)NC(=O)[C@H](CCC(N)=O)NC(=O)[C@H](CCCCNC(=O)CC[C@H](NC(=O)CCCCCCCCCCCCCCCCC(=O)O)C(=O)O)NC(=O)[C@H](CC(=O)O)NC(=O)[C@H](CC(C)C)NC(=O)[C@@H](NC(=O)[C@@H](NC(=O)[C@H](C)NC(=O)[C@H](CC(C)C)NC(=O)[C@H](CCC(=O)O)NC(=O)[C@H](CO)NC(=O)[C@@H](NC(=O)[C@H](Cc1ccccc1)NC(=O)[C@@H](NC(=O)CNC(=O)[C@H](CCC(=O)O)NC(=O)C(C)(C)NC(=O)[C@@H](N)Cc1c[nH]cn1)[C@@H](C)O)[C@@H](C)O)[C@@H](C)O)[C@@H](C)CC)C(=O)N[C@@H](C)C(=O)N[C@@H](Cc1c[nH]c2ccccc12)C(=O)N[C@@H](CC(C)C)C(=O)N[C@H](C(=O)N[C@@H](CCC(N)=O)C(=O)N[C@@H](Cc1c[nH]cn1)C(=O)N[C@@H](CCCCN)C(=O)N[C@H](C(=O)N[C@H](C(=O)N[C@@H](CC(=O)O)C(=O)O)[C@@H](C)O)[C@@H](C)CC)[C@@H](C)CC
For B3, in test [1], the “EC50 GLP-1 (nM); cAMP response” value was determined as 0.066 nM. Also, the “EC50 GLP-2 (nM); cAMP response” value in test [2] was 0.23 nM.

B4: Compound 18 (peptide)
peptide: HXEGSFTSELATILDXQAARDFIAWLIQHKITD
HELM: PEPTIDE1{H.[Aib].E.G.S.F.T.S.E.L.A.T.I.L.D.K.Q.A.A.R.D.F.I.A.W.L.I.Q.H.K.I.T.D}|PEPTIDE2{[O=C(O)CCCCCCCCCCCCCCCCC(=O)[*:2]].[gGlu]}$PEPTIDE1,PEPTIDE2,16:R3-2:R2$$$V2.0
SMILES: CC[C@H](C)[C@H](NC(=O)[C@H](Cc1ccccc1)NC(=O)[C@H](CC(=O)O)NC(=O)[C@H](CCCNC(=N)N)NC(=O)[C@H](C)NC(=O)[C@H](C)NC(=O)[C@H](CCC(N)=O)NC(=O)[C@H](CCCCNC(=O)CC[C@H](NC(=O)CCCCCCCCCCCCCCCCC(=O)O)C(=O)O)NC(=O)[C@H](CC(=O)O)NC(=O)[C@H](CC(C)C)NC(=O)[C@@H](NC(=O)[C@@H](NC(=O)[C@H](C)NC(=O)[C@H](CC(C)C)NC(=O)[C@H](CCC(=O)O)NC(=O)[C@H](CO)NC(=O)[C@@H](NC(=O)[C@H](Cc1ccccc1)NC(=O)[C@H](CO)NC(=O)CNC(=O)[C@H](CCC(=O)O)NC(=O)C(C)(C)NC(=O)[C@@H](N)Cc1c[nH]cn1)[C@@H](C)O)[C@@H](C)O)[C@@H](C)CC)C(=O)N[C@@H](C)C(=O)N[C@@H](Cc1c[nH]c2ccccc12)C(=O)N[C@@H](CC(C)C)C(=O)N[C@H](C(=O)N[C@@H](CCC(N)=O)C(=O)N[C@@H](Cc1c[nH]cn1)C(=O)N[C@@H](CCCCN)C(=O)N[C@H](C(=O)N[C@H](C(=O)N[C@@H](CC(=O)O)C(=O)O)[C@@H](C)O)[C@@H](C)CC)[C@@H](C)CC
In the case of B4, the “EC50 GLP-1 (nM); cAMP response” value in test [1] turned out to be 0.19 nM. Besides, the “EC50 GLP-2 (nM); cAMP response” value in test [2] was found to be 0.21 nM.

B5: Compound 20 (peptide)
peptide: HXEGTFSSELATILDXQAARDFIAWLIEHKITD
HELM: PEPTIDE1{H.[Aib].E.G.T.F.S.S.E.L.A.T.I.L.D.K.Q.A.A.R.D.F.I.A.W.L.I.E.H.K.I.T.D}|PEPTIDE2{[O=C(O)CCCCCCCCCCCCCCCCC(=O)[*:2]].[gGlu]}$PEPTIDE1,PEPTIDE2,16:R3-2:R2$$$V2.0
SMILES: CC[C@H](C)[C@H](NC(=O)[C@H](Cc1ccccc1)NC(=O)[C@H](CC(=O)O)NC(=O)[C@H](CCCNC(=N)N)NC(=O)[C@H](C)NC(=O)[C@H](C)NC(=O)[C@H](CCC(N)=O)NC(=O)[C@H](CCCCNC(=O)CC[C@H](NC(=O)CCCCCCCCCCCCCCCCC(=O)O)C(=O)O)NC(=O)[C@H](CC(=O)O)NC(=O)[C@H](CC(C)C)NC(=O)[C@@H](NC(=O)[C@@H](NC(=O)[C@H](C)NC(=O)[C@H](CC(C)C)NC(=O)[C@H](CCC(=O)O)NC(=O)[C@H](CO)NC(=O)[C@H](CO)NC(=O)[C@H](Cc1ccccc1)NC(=O)[C@@H](NC(=O)CNC(=O)[C@H](CCC(=O)O)NC(=O)C(C)(C)NC(=O)[C@@H](N)Cc1c[nH]cn1)[C@@H](C)O)[C@@H](C)O)[C@@H](C)CC)C(=O)N[C@@H](C)C(=O)N[C@@H](Cc1c[nH]c2ccccc12)C(=O)N[C@@H](CC(C)C)C(=O)N[C@H](C(=O)N[C@@H](CCC(=O)O)C(=O)N[C@@H](Cc1c[nH]cn1)C(=O)N[C@@H](CCCCN)C(=O)N[C@H](C(=O)N[C@H](C(=O)N[C@@H](CC(=O)O)C(=O)O)[C@@H](C)O)[C@@H](C)CC)[C@@H](C)CC
For B5, the “EC50 GLP-1 (nM); cAMP response” value in test [1] came to 0.55 nM. The “EC50 GLP-2 (nM); cAMP response” value in test [2] came to 0.37 nM.

Source of the values: patent US20200297818A1 (ZEALAND PHARMA A S, published 2020).
